The results in this text go back to PMC13043311, “2′-O-Methyl-guanosine RNA fragments antagonize TLR7 and TLR8 to limit autoimmunity”.

Positions count from the first letter of the chain named.

Conditions in all cases: protein: recombinant; chain copies: 2; single-stranded
One data set concerns the target T1, TLR7 F507L (Macaca mulatta, UniProt B3Y653 27-839, F507L).
T1 sequence: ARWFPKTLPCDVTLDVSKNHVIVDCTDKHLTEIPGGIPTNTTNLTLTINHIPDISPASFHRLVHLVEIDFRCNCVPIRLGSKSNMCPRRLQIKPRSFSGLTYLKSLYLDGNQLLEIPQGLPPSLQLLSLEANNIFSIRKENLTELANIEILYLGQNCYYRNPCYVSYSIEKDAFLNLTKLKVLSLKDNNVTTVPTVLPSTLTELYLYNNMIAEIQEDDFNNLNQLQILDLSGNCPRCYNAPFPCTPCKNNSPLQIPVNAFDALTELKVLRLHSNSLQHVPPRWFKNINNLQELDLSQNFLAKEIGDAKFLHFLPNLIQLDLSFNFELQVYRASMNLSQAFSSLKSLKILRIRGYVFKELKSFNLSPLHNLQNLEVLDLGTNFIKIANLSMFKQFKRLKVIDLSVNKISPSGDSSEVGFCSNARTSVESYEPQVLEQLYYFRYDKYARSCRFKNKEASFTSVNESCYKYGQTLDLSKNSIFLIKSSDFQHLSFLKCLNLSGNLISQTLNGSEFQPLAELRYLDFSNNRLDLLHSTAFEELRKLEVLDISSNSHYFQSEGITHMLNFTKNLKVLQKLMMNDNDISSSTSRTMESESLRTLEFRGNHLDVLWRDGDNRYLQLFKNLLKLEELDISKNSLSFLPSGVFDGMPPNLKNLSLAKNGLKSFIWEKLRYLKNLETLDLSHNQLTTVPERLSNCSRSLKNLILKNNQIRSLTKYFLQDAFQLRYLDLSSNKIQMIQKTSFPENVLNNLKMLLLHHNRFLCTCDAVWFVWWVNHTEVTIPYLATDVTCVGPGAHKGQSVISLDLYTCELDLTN
The data set can be described thus: SPR; mean computed from runs 16±2, 18±2, 20±6; SPR with recombinant TLR7/TLR8; buffer, pH and temperature not in the material. For orientation: SPR reads the build-up and loss of mass on a sensor chip optically.

In a further data set the target is T2, TLR7 P435S (Macaca mulatta, UniProt B3Y653 27-839, P435S).
T2 sequence: T1 sequence with P409S, L481F
The data set can be described thus: SPR; mean computed from runs 5±0.6, 6±0.7, 6±0.7; SPR with recombinant TLR7/TLR8; buffer, pH and temperature not in the material.

A further data set has as its target T3, TLR7 WT (mmTLR7) (Macaca mulatta, UniProt B3Y653 27-839).
T3 sequence: T1 sequence with L481F
Kind of data set: SPR; mean computed from runs 0.9±0.3, 2±0.5, 1.4±0.6; SPR with recombinant TLR7/TLR8; buffer, pH and temperature not in the material.

What is called Kd is the free concentration of one partner at which half of the binding sites on the other are occupied at equilibrium, for simple one-to-one binding. Take GUC (XNA, 2'-OMe G1, RNA U2 C3; phosphorothioate linkages) [mGrUrC PS]: the values for the Kd in the data set with TLR7 F507L, with TLR7 P435S and in the data set with TLR7 WT (mmTLR7) were 18 µM, 5.67 µM and 1.43 µM, respectively.
